# Experimental data published in PMC7226614.
# Target: Myc-GRAF3 (human) (UniProt A6NI28)
# Sequence of UniProt A6NI28 (A6NI28 whole entry): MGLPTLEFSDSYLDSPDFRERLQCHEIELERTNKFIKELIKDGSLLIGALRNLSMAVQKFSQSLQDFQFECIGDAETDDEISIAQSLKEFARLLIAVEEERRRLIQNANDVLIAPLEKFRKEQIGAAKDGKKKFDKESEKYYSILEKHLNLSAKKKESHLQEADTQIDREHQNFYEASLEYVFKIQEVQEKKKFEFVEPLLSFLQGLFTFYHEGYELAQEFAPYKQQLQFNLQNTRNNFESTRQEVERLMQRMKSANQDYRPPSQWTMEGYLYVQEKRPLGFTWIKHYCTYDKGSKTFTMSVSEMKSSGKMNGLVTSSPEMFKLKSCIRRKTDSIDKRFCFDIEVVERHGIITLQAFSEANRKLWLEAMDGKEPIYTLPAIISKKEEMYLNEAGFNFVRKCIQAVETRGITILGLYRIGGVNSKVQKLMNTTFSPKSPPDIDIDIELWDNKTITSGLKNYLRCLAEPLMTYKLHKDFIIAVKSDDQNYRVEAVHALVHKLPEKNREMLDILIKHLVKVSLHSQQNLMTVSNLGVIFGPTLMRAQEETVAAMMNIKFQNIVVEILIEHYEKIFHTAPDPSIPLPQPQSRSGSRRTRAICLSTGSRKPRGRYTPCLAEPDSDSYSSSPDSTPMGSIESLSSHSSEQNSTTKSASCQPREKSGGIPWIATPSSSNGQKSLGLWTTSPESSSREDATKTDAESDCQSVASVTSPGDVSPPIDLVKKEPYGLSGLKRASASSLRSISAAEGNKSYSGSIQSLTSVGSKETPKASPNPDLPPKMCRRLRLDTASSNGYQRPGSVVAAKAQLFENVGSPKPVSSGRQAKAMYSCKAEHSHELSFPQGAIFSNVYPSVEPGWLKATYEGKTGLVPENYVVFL
substance,measurement,value
Flag-GRAF3 Bar-PH (domain or fragment),"RhoA-dependent actin stress fibers (phalloidin staining) in RaAoSMC; cells with reduced stress fibers: 58/59 with Myc-GRAF3 alone, 5/72 with Myc-GRAF3 and Flag-BAR-PH",5 of 72 cells
